This is an account of results in article PMC12463876, “AI-assisted design of ligands for lipocalin-2” (Frontiers in Immunology, 2025).

The assay has as its target T1, Recombinant human lipocalin-2 (LCN2) (human, UniProt P80188 21-198).
T1 construct: Lipocalin-2 (LCN2), human, recombinant; neither is said to be the construct used; also called neutrophil gelatinase-associated lipocalin; siderocalin; source: produced and purified by GenScript
The experiment in a line: SPR; MinP-2 immobilised by amine coupling on a CM5 chip (Biacore 8K); LCN2 injected at 7.8, 15.6, 31.2, 62.5 and 125 nM, 30 uL/min, contact 120 s, dissociation 600 s; 25 °C; 1:1 model. As to conditions: both partners purified. On the technique in general: SPR reads the build-up and loss of mass on a sensor chip optically.

T1 sequence (P80188 21-198): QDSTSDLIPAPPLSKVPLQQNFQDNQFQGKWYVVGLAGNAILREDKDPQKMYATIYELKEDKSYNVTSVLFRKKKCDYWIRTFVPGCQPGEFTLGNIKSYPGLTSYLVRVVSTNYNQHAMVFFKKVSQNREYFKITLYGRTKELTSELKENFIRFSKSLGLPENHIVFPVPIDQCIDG

B1: MinP-2 (designed binder)
chain: MSKATVYDVSTGKTYEVSLEDAKKLASYAVYEGGYPLRISVAPEDTKAILDAIKNTSKEKAEEGKKLLEELN
notes: de novo miniprotein (RFdiffusion, ProteinMPNN) designed against LCN2; Cloned into pET30b with a Twin-Strep tag; also called MiniP-2; source: E. coli BL21 (DE3) pLysS, purified (Strep-Tactin XT magnetic beads, dialysis)
The Kd is the concentration at which binding is half-saturated. On to B1, for which the Kd was found to be 4.2 nM.
